The record followed here is patent US20050249739A1.

For this assay, the target named is S protein of SARS-CoV (Urbani strain) on virus (SARS-CoV (Urbani strain)) (UniProt P59594). The experiment in a line: cell-based or functional assay.

80R IgG1 (antibody): the micro-neutralization assay: fold more effective than 80R scFv on a molar basis came to 20 fold.
